Results from patent publication US20110097340A1 (SCHERING, published 2011).
Each block holds one molecule with its values, some of them ahead of it.

Tests used:
murine VEGF165 [1] = molecular target: T1, murine VEGF165 (murine, UniProt Q00731-2 27-190); assay: sandwich ELISA, antibody coated
T1 construct: also called mVEGF165; rMu-VEGF165
T1 sequence (looked up): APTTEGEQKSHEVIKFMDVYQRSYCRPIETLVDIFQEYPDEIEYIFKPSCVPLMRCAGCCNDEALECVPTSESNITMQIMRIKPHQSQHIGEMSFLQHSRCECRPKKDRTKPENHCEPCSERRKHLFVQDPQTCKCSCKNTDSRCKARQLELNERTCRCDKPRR
Experimental: (§1) Mutants were transiently expressed in CHO-K1 cells, and cell supernatants were collected for binding analysis by ELISA.
(§2) The plate was blocked with 30% ChemiBlock™ reagent (Millipore) in PBS for one hour at room temperature, and 30, 60, or 100 μl of CHO-K1 culture supernatant for each mutant, or 1 μg/ml of wild-type hVEGF₁₂₁, recombinant hVEGF₁₆₅, or recombinant mVEGF₁₆₅, was added to appropriate wells. After one hour of incubation, the plate was washed and incubated with a biotinylated goat polyclonal anti-VEGF antibody for one hour at room temperature. Detection was performed with HRP-conjugated streptavidin, followed by TMB chromogenic substrate (Calbiochem) using manufacturer protocol.

human VEGF165 [2] = molecular target: T2, human VEGF165 (human, UniProt P15692 207-395); assay: sandwich ELISA, antibody coated
Experimental: as §1, §2

hVEGF121-Q89A = molecular target: T3, hVEGF121-Q89A (human, UniProt P15692-9 27-147, Q89A); assay: sandwich ELISA, antibody coated
T3 construct: Transiently expressed in CHO-K1 cells; culture supernatant used
T3 sequence (looked up): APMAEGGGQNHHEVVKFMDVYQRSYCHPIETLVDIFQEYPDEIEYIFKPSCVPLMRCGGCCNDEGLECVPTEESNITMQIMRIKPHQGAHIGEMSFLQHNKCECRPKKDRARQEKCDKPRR
Experimental: as §1, §2

hVEGF121-G92A = molecular target: T4, hVEGF121-G92A (human, UniProt P15692-9 27-147, G92A); assay: sandwich ELISA, antibody coated
T4 construct: Transiently expressed in CHO-K1 cells; culture supernatant used
T4 sequence (looked up): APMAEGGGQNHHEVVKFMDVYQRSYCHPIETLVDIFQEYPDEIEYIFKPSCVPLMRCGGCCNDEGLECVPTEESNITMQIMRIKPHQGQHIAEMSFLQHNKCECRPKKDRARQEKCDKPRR
Experimental: as §1, §2

wild-type hVEGF121 = molecular target: T5, wild-type hVEGF121 (human, UniProt P15692-9 27-147); assay: sandwich ELISA, antibody coated
T5 sequence (looked up): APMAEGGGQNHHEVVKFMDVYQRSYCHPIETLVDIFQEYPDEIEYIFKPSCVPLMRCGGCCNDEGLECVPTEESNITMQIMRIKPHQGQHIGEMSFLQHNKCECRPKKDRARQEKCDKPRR
Experimental: as §1, §2

hVEGF121-G88S = molecular target: T6, hVEGF121-G88S (human, UniProt P15692-9 27-147, G88S); assay: sandwich ELISA, antibody coated
T6 construct: Transiently expressed in CHO-K1 cells; culture supernatant used
T6 sequence (looked up): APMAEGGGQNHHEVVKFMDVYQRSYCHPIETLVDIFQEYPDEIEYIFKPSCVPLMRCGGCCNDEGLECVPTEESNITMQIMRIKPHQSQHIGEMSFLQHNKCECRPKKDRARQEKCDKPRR
Experimental: as §1, §2

hVEGF121-M81A = molecular target: T7, hVEGF121-M81A (human, UniProt P15692-9 27-147); assay: sandwich ELISA, antibody coated
T7 construct: Transiently expressed in CHO-K1 cells; culture supernatant used
T7 sequence (looked up): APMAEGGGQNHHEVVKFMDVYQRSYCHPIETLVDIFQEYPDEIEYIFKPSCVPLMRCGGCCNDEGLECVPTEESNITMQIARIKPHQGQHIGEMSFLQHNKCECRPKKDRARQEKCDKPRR
Experimental: as §1, §2

human VEGF165 [3] = molecular target: T2, human VEGF165; assay: cell-based or functional assay
human VEGF165 [4] = molecular target: T2, human VEGF165; assay: Biacore (SPR)
human VEGF165 [5] = molecular target: T2, human VEGF165; assay: Biacore 2000, hVEGF165 amine-coupled on C1 chip, antibody injected, 1:1 fit
Experimental: (§3) The VEGF binding affinity of these IgGs was tested on a Biacore 2000® by injecting the antibodies over a very low density antigen surface. Human or murine VEGF₁₆₅ was immobilized via standard amine coupling methods to flow cells on a C1 (planar carboxy surface) chip. Approximately 85 RU of each antigen was immobilized and a reference flow cell was activated and blocked. Antibodies were injected over the chip surface for 400 seconds at two different concentrations, after which dissociation was monitored. Data was analyzed by Scrubber® using double referencing and fitting with a 1:1 interaction. Regenerations were performed with 90 mM HCl with 500 mM NaCl.
Target sequence in this assay (P15692 other isoform, or with tags, fused parts or gaps limits assumed): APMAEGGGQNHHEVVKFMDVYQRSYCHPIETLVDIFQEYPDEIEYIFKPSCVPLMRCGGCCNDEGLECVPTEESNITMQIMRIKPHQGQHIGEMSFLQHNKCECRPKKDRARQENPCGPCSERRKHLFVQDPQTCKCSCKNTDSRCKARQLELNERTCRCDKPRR

human VEGF165 [6] = molecular target: T2, human VEGF165; assay: cell-based or functional assay; remark: listed apart in the source
Target sequence in this assay (P15692 other isoform, or with tags, fused parts or gaps limits assumed): as above

murine VEGF165 [7] = molecular target: T1, murine VEGF165; assay: Biacore 2000, mVEGF165 amine-coupled on C1 chip, antibody injected
Experimental: as §3

HPP: sf21-hVEGF165, scFvFc (IC50) (human VEGF165 [3]): 0.41 µg/mL
B1: XPA.10.064 scFv-Fc (Fc fusion, part only; not given: linker, gamma-2 Fc, junction, not shown: another chain or arm of the molecule; a dimerising Fc or GST; small tags and cut ends)
VH: EVQLVQSGAEVRKPGASVKVSCKASGYSFTGHYIHWVRQAPGQGLEWMGWINPYSGGTNFPREFQGRVTMTRDTSVNTVYMELTRLTSDDTSVYYCARDHRIVGGLDYWGQGTLVTVSS
VL: SYVLTQPPSASGTPGQRVTISCSGSSSNIGINYVYWYQQLPGTAPKLLIYRNDQRPSGVPDRFSGSKSGTSASLAISGLRSEDEADYYCATWDDSLSGVVFGGGTKVTVL

binding result (human VEGF165 [4]): binds
B2: XPA.10.064 after oxidation with tert-butylhydroperoxide (antibody, V domains shown)
VH: EVQLVQSGAEVRKPGASVKVSCKASGYSFTGHYIHWVRQAPGQGLEWMGWINPYSGGTNFPREFQGRVTMTRDTSVNTVYMELTRLTSDDTSVYYCARDHRIVGGLDYWGQGTLVTVSS
VL: SYVLTQPPSASGTPGQRVTISCSGSSSNIGINYVYWYQQLPGTAPKLLIYRNDQRPSGVPDRFSGSKSGTSASLAISGLRSEDEADYYCATWDDSLSGVVFGGGTKVTVL
modifications: partial methionine oxidation after tBHP: Met-48 39%, Met-70 0%, Met-81 28%
notes: also called oxidized XPA.10.064

Kd (murine VEGF165 [7]): 130 nM
Kd (human VEGF165 [5]): 0.0349 nM
koff (human VEGF165 [5]): 6.65e-06 s⁻¹
kon (human VEGF165 [5]): 207000 M⁻¹ s⁻¹
HUVEC proliferation, geometric mean IC50 (human VEGF165 [6]): 0.129 nM
B4: XPA.10.064.07 IgG2 (antibody, V domains shown)
VH: EVQLVQSGAEVRKPGASVKVSCKASGYSFTGHYIHWVRQAPGQGLEWMGWINPYSGGTNFPREFQGRVTMTRDTSVNTVYMELTRLTSDDTSVYYCARDEMHVGGLDYWGQGTLVTVSS
VL: SYVLTQPPSASGTPGQRVTISCSGSSSNIGINYVYWYQQLPGTAPKLLIYRNDQRPSGVPDRFSGSKSGTSASLAISGLRSEDEADYYCATWDDSLSGVVFGGGTKVTVL
notes: IgG2

Further lines, the molecule ahead of its results:

Molecule: control polyclonal goat anti-human VEGF (antibody)
Raw data (ELISA signal) (murine VEGF165 [1]): 0.0939
fold binding over CHO background (murine VEGF165 [1]): 1 fold
Raw data (ELISA signal) (human VEGF165 [2]): 2.45
fold binding over CHO background (human VEGF165 [2]): 26.9 fold
Raw data (ELISA signal) (hVEGF121-Q89A): 0.985
fold binding over CHO background (hVEGF121-Q89A): 10.8 fold
Raw data (ELISA signal) (hVEGF121-G92A): 2.18
fold binding over CHO background (hVEGF121-G92A): 23.9 fold
Raw data (ELISA signal) (wild-type hVEGF121): 2.56
fold binding over CHO background (wild-type hVEGF121): 28 fold
Raw data (ELISA signal) (hVEGF121-G88S): 0.769
fold binding over CHO background (hVEGF121-G88S): 8.4 fold
Raw data (ELISA signal) (hVEGF121-M81A): 1.71
fold binding over CHO background (hVEGF121-M81A): 18.8 fold

B3: XPA.10.064.10 IgG2 (antibody, V domains shown)
VH: EVQLVQSGAEVRKPGASVKVSCKASGYSFTGHYIHWVRQAPGQGLEWMGWINPYSGGTNFPREFQGRVTMTRDTSVNTVYMELTRLTSDDTSVYYCARDEMVWGGLDYWGQGTLVTVSS
VL: SYVLTQPPSASGTPGQRVTISCSGSSSNIGINYVYWYQQLPGTAPKLLIYRNDQRPSGVPDRFSGSKSGTSASLAISGLRSEDEADYYCATWDDSLSGVVFGGGTKVTVL
notes: IgG2
Kd (human VEGF165 [5]): 0.0556 nM
koff (human VEGF165 [5]): 1.16e-05 s⁻¹
kon (human VEGF165 [5]): 216000 M⁻¹ s⁻¹
HUVEC proliferation, geometric mean IC50 (human VEGF165 [6]): 0.139 nM
